What was measured:
[1] = target: DS-Cav1 (respiratory syncytial virus subtype A, strain A2 | not stated) (UniProt P03420); experiment: SEC
[2] = target: DS-Cav1-His6 (respiratory syncytial virus subtype A, strain A2 | not stated) (UniProt P03420); experiment: SEC
[3] = target: DS-Cav1-His6 (respiratory syncytial virus subtype A, strain A2 | not stated) (UniProt P03420); experiment: cross-linking
[4] = target: sc9–10 DS-Cav1 (respiratory syncytial virus subtype A, strain A2 | not stated) (UniProt P03420); experiment: SEC
[5] = target: sc9–10 DS-Cav1-His6 (respiratory syncytial virus subtype A, strain A2 | not stated) (UniProt P03420); experiment: SEC
[6] = target: sc9–10 DS-Cav1-His6 (respiratory syncytial virus subtype A, strain A2 | not stated) (UniProt P03420); experiment: cross-linking
UFCM1 = UFCM1 (human metapneumovirus, …, UniProt Q1A2Z0, E80D | T127C | N153C | A185P); experiment: ELISA
UFCM1-P2 = UFCM1-P2 (human metapneumovirus, …, UniProt Q1A2Z0, E80D | T127C | N153C | A185P | V155P); experiment: ELISA

DS-Cav1 (from UniProt P03420 26-513) (domain or fragment)
stoichiometry N [1]: 3

DS-Cav1-His6 (from UniProt P03420 26-513) (domain or fragment)
stoichiometry N [2]: 3
stoichiometry N [3]: 3

sc9–10 DS-Cav1 (from UniProt P03420 26-513) (domain or fragment)
stoichiometry N [4]: 3

sc9–10 DS-Cav1-His6 (from UniProt P03420 26-513) (domain or fragment)
stoichiometry N [5]: 3
stoichiometry N [6]: 3

B1: MPE8 IgG (antibody, V domains shown)
VH: EVQLVESGGGLVKPGGSLRLSCAASGFTFSSYSMNWVRQAPGKGLEWVSSISASSSYSDYADSAKGRFTISRDNAKTSLFLQMNSLRAEDTAIYFCARARATGYSSITPYFDIWGQGTLVTVSS
VL: QSVVTQTPSVSGAPGQRVTISCTGSSSNIGAGYDVHWYQQLPGTAPKLLIYDNNNRPSGVPDRFSASKSGTSASLAITGLQAEDEADYYCQSYDRNLSGVFGTGTKVTVL
binding result (UFCM1): binds
binding result (UFCM1-P2): binds

Reference: PMC10942449 (bioRxiv, 2024)
